Test results reported in patent US20160320385A1.

What was measured:
[1] = target: monoclonal antibody (moAb) G12; assay: competitive ELISA with G12-HRP on a plate coated with Sigma gliadin
[2] = target: 33-mer peptide from alpha-2 gliadin; assay: immunochromatographic strips based on G12 moAb (GlutenTox stick); 33-mer peptide after digestion
[3] = target: 33-mer peptide from alpha-2 gliadin; assay: immunochromatographic strips based on G12 moAb (GlutenTox stick); untreated 33-mer peptide
[4] = target: PWG gliadin after gastric and intestinal digestion (pepsin, then trypsin and chymotrypsin); assay: immunochromatographic strips based on G12 moAb (GlutenTox stick); hydrolyzed gliadin
[5] = target: PWG gliadin (intact, undigested) (wheat); assay: immunochromatographic strips based on G12 moAb (GlutenTox stick); gliadin

33-mer peptide from alpha-2 gliadin, sequence (peptide, as listed by the source): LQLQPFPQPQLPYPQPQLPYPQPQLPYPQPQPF

| concentration of 33-mer (33-mer equivalents) [1] | Substance | detection limit [2] [ng/mL] | detection limit [3] [ng/mL] | detection limit [4] [ng/mL] | detection limit [5] [ng/mL] |
| --- | --- | --- | --- | --- | --- |
| 21.6 ng 33-mer/µg | PWG gliadin (intact, undigested) | – | – | – | – |
| 7.5 ng 33-mer/µg | PWG gliadin after gastric and intestinal digestion (pepsin, then trypsin and chymotrypsin) | – | – | – | – |
| 24.5 ng 33-mer/ng | PWG gliadin after gastric digestion (pepsin) | – | – | – | – |
| – | monoclonal antibody (moAb) G12 | 0.5 | 0.5 | 50 | 30 |
